Laboratory results as given in the DeepSol protein solubility set.

Assay: soluble on expression in E. coli; label from the status in PepcDB or PDB records

Sequence | soluble on expression in E. coli
MSLSGFNYEKNQPHQMRAVSAVLGVFDGATPKYRTADENPELLFAAKQYANNILKVQSQNGIDGRFPDRSDDQNILDISMETGTGKTYTYTQTMFELHRWLGVFKFIVVVPTLSIKAGTQQFLQSKALAEHFEQDFGGDYEGVRLKTYVVESAKKNKGKKSNAPITIEQFVKAENKKEIHVLLINAGMVNSSSMNDTGDKALKDLFDNPVDALAAVRPFMIVDEPHKFPTRDSAKTWGNIKRLKPQYILRYGATFNDEYYNLLYRLTAVDAFNDGLVKGVRVFQEEMQGGMDAAVKLVSSDGKEAKFELNEKDKKQTFKLAKGEDLAQIHPAISDLKIDKMNKTVVVLSNGLELKTGAVINPYSYSQTVQDAMMQRAVAEHFKLERALLAERAPQPKIKPLTLFFIDDIAGYRSGNELSGSLKDKFESWIRAEAARRLKTESDPFYRDYLQKTLDDVSACHGGYFSKDNTDSDDRIEQEINEILHDKEKLLSLDNPRRFIFSKWTLREGWDNPNVFQICKLRSSGSTTSKLQEVGRGLRLPVNELMARVRDVPYKLNYFVDSSEKDFVKQLVGEINDNSFQEEISKKFTEELKQKILQKYPDIKPLVLVNQLFLDGIIDDNENFAEDGYDKLKAAYPEAFPKGLDKGKVSNAKDEGKDTIIMREGKYEELKALWELIHHKAVLQYKIKDEAEFADLFTAYLHENAAKFPQAGIRTAVNEAYINNGLMLSRRIDSFEDEDFIRFNTMTYREFLEKLAQTAKIRMQTLHQAFYCIRNELNIGDFLNMQTIAQIKNGFNRFLLHHSFHKFELDYRLVGSKIHPTKFTNKDGKPRAVKKADLGRFEDTEHRPAAGYLFGEIFYDSDIEHENVANNQIEGVIVFTKIPRNSIKIPVAGGGTYSPDFAYIVKTKSGEILNFVIEAKGTDGAEDLRKSEERKIKHAEKLFAEISKEIKVVFKTQFDGERIAELIGQNMPAGGHSENGREGHHHHHH | not soluble
MSLSGIFNWSLDVFADIYNTLKFESNIDLDTIDFTSIKNDLANVLITPVPLDQSRSKLGDASKPVALPSGDEVKLNQASIEITGVLSNELDLDELNTAELLYNASDLSYKKGTSIGDSARLAYYLRAHYILNIVGYLVSHKRLDIITNNNQVLFDNILKSFSKIYTLSGKLNDMIDKQKVTGDINNLAFINCINYSRSQLFNAHELLGQVVFGLADNYYESYGTLNNYKSLVEFILKNISDEDVFVIHFLPSTLQLFKKLLQLGEESLVDQFYKTITSSILKDYEANNFSKSEDIDLSKSKLSGFEIVTSFIFLTEFIPWCKQLSSRTAKYDFKDDILKYMEFLISYGVMERLLSYCSETANAKTQQVYDWSNMYDFRALLQKNFPRLTPAKFHYPGNQELLNAVRPGYENVSKLIDISFLTLDPSLNETLVSPFFQSFFSVFISNAAVVMTSLRDSEEDFVLSSLNESDEGHHHHHH | soluble
MSLSGKDLGRAIEQAINKKIASGSVKSKAEVARHFKVQPPSIYDWIKKGSISKDKLPELWRFFSDVVGPEHWGLNEYPIPTPTNSDTKSELLDINNLYQAASDEIRAIVAFLLSGNATEPDWVDHDVRAYIAAMEMKVGKYLKALESERKSQNITKTGTEGHHHHHH | soluble
MSLSGKPITDQQIRLYVNERKQGQTQLAASAKSGLSERSGRRIDSGELNTEPTPKRQWRTRKDPLAEVWSSVLVPMLEANPELLPLTLFEYLHDNYPNQYDNTVLRTLQRRVKAWKVKHGPAKEVMFRQTKVPGRLGLSDFTLLKGVTITILGQVFCHLLYHYRLAFSGWTYAKVICGGESYTALSTGLQNALWRSGGAPLEHRTDSLSAAFNNLAEKEQMTVRYDALCHHYQLKGSRNNPGKSHENGTIEAAHGHLKRRMTQALLLRGDTDFTSLEAYQAFVDGIVTKINQQCRTRFEQERPLLQTLPKRRTHDYAEHSVLISSSSSFDLKRVTYTVPSRFIGERLYVQLYDERLDLFSGHEQIMSLPRVYATTTQRGRSVDYRHVIDSLVKKPGAFRYSQLRDDLLPTPDYHRIWQYVDGTLNPHDACRYIVRLLHLAATAQCQDSLGRYVLKSIEGGELPSNLQCNKRFSTDTAVIPLITAKQHLLADYDQLLCVEVQHGEGHHHHHH | not soluble
MSLSILFKNAALLDPLQADLMDAHHVLVEDNLIKEVSDRPLQVTADRTIDLRGKTLMPGLIDLHVHAVAVELNLAQQVHMPNVLVTLRSTLLLRGMLRRGFTTVRDAGGAGHALKQAIETGLTDGPRLFVSGRALSQTGGHGDMRARSDYLASDAPCPCCVRVGALARVADGVDGVRRAAREELQMGADQIKIMASGGVASPTDPVGAFGYSEDEIRAIVEEARGRQTYVLAHAYTAAAIARAVRCGVRTIEHGNLVDEPTARLMAEKGAYVVPTLVTYEALANEGAQYGLPPESVAKIADVRDAGLRSLAIYRDAGVKMGFGSDLLGPSQRLQSDEFRIRAEILGPRAVIASATVIGAEVLGMEGKLGRIAPEALADLLVVDGNPLRDVACLLGQGEHIPLVLKAGKVQFDRLNAEGHHHHHH | not soluble
MSLSITRKDFDHINLEYSGLEKVNKAVAAGNYDDAAKALLAYYREKSKAREPDFSNAEKPADIRQPIDKVTREMADKALVHQFQPHKGYGYFDYGKDINWQMWPVKDNEVRWQLHRVKWWQAMALVYHATGDEKYAREWVYQYSDWARKNPLGLSQDNDKFVWRPLEVSDRVQSLPPTFSLFVNSPAFTPAFLMEFLNSYHQQADYLSTHYAEQGNHRLFEAQRNLFAGVSFPEFKDSPRWRQTGISVLNTEIKKQVYADGMQFELSPIYHVAAIDIFLKAYGSAKRVNLEKEFPQSYVQTVENMIMALISISLPDYNTPMFGDSWITDKNFRMAQFASWARVFPANQAIKYFATDGKQGKAPNFLSKALSNAGFYTFRSGWDKNATVMVLKASPPGEFHAQPDNGTFELFIKGRNFTPDAGVFVYSGDEAIMKLRNWYRQTRIHSTLTLDNQNMVITKARQNKWETGNNLDVLTYTNPSYPNLDHQRSVLFINKKYFLVIDRAIGEATGNLGVHWQLKEDSNPVFDKTKNRVYTTYRDGNNLMIQSLNADRTSLNEEEGKVSYVYNKELKRPAFVFEKPKKNAGTQNFVSIVYPYDGQKAPEISIRENKGNDFEKGKLNLTLTINGKQQLVLVPEGHHHHHH | soluble
MSLSKNWLFLGKGFRWRPSHTQKLHQIKQVKNEKFMQRSYCYQLTRRFCQSHEHTKLAKWLNINSKLNPFRPDPPVGGSPFLHGVGDEDKPVYIPQDVRVGHTFVVGTTRVGKTRLASILINQDIRNGDAVIVVDPKGDQDLVRDMVAACKVSGRTEDFKIVHLGFPEQSAQYNPLKKFDQISEVATRITDAISAEGEGKQFAAFAWKYVNIVAICLEEMNQPITYQTIAFYISRLEQLLMSYADNILPNHYLNYHQEIDDIIEEHDSKIGKNNKTKSPMERHQAVIQYIKDHINKTIKSNNAEALHDQILIDLYDAAIMDKHYYDKITASVGPVLSEINKSNASKILSSKAQPGDIELMDVIKNKKVLYIGLDSLTNPNIAQAVGKAFLSDLVSTAGKIYKEPNARYTLNLHCDELSEIIQDSFVKILNKAGGAGFQVTAYAQTIQDMEVALGSRAKAEVSEGNFNTLIMLRVKNEETANLLVKVLPQVGVVGHTQVSMVNDTPHGDDGVYFNTTNEDRVQTSNAPMIGVDDIISLPKGQAFVLASGGEIWKIRIPLPMNSNEGHHHHHH | not soluble
MSLSLFQAILTSMEPREGGEKVFPSDLMIARKTKTGIIYPVFLSDDNIDYARAVISVFTLNTGKKKEVIENNLKEIELKFQNAKIIRALSLIMMRKSIFVPPVNIDAQALREYIFSMARIPPINSNEREMILKSAAESFNIDYIDIENAIYADKDSESILERPYNTDEGKLIREYNLEQLETVLLKCTELNISNASDWHFVITMIRRLGLLYEIKNDGDKIISVNITGPMALFENTERYGSKFSMLIRSIYKMNEWSLTASIKVKDFSGDKNIYTLKLSDSAKFFLPPGTIKPEHLPEHVSRGYPIIINNKFYFPDYIIDLDERIYVSINSDEKPDNLNWINVYILSDRDKKKPGSIAFYNDMDWDELFNLISKKRNLSSEIDNYSIDEIKKKLDQIYPDSQGMIDYLESQGLIPLRVLPELGYKIKWKNLDIIIEKAEGHHHHHH | not soluble
MSLSNFKSISLTYRKAPLEIRERVALNEAECKSLMLRIKDFTDTAELLILSTCNRTEIYYTSNEDYSNDIIKLLGVEKNITGLIQQKEYFEIYNEQADAVLHLFEVGIGLDSQVVGDMQIVNQVKYAYQWSADLNLAGPFLHRLMHTIFFTNKRVVQETAFRDGAASVSYATVELSEELLSATPNANILIVGLGEIGADVCRNFKANTSFKNITLTNRSPLKSEALAAECGIEHVPFETLWEAVAKADLVISSVAKEEPLFTKEEIQKLSILSHKYFIDLSVPRSVDARAEELPGIIVYDIDHIQNRSNEALENRLNAIPHVRKIILDSIVEFNEWSKEMEVSPTINKLKNALEQIRKEELSRFVKQLSDEEAKKVDEITKSIMQKIIKLPVLQLKAACKRGEAETLIDVLNDLFNLDKQPEQIREGHHHHHH | soluble
MSLSPEDAIVIILSDDDTIRSALDANIHLQGRRSHLCKSRTDFLISPEADLVGCVVLDARLPDLTASDLTHLICAHAIRCPVIVLTGHGGQAMTVNATKFHVSFIPQPFDLNALAEKIHAAIRTTMEIGRLEGNYRTLTPREREVMKFVAEGLLNKQVAFKLNISEITVKAHRGQVMRKMNARTLPHLVNMAAKLDIGVAFLHEGHHHHHH | soluble
MSLSRCLPLGQNARVIIIPARLAHAASTQAAAATDDAPNFFQKLAHRFQGVPLKGEAHAPKSMFEDCNKEWSAPEPLPAIPKDFKEHPDRDLVNYPYPARPMYPPKSRLLMMPDSWFTPFQKVTGVSGPYLFFGGLFAFLVNKELWVFEEQGHMTVGWILFYLLVTRTAGYKIDQGLYNGYQERVNFFKGLIQEDLKEAVEFKKTSAKQTESLNSIKESYPTALKESMALQLEATYRKNVQSVATELKRRIDYLKETEESKARVEREQLLKLINSEVDKEFSDRSFKDKYLQNAIQQLKGLNVQL | not soluble
MSLSRRPAYARLLDRAVRILAVRDHSEQELRRKLAAPIMGKNGPEEIDATAEDYERVIAWCHEHGYLDDSRFVARFIASRSRKGYGPARIRQELNQKGISREATEKAMRECDIDWCALARDQATRKYGEPLPTVFSEKVKIQRFLLYRGYLMEDIQDIWRNFADEGHHHHHH | soluble
MSLSRSFDTAPLGGRLNLTVADAEVFRNFLPVGQTVKGSLNAAVTLGGSIADPHLGGSINGDKLYYRNQTQGIILDNGSLRSHIAGRKWVIDSLKFRHEGTAELSGTVGMENSGPDVDIGAVFDKYRILSRPNRRLTVSGNTRLRYSPQKGISVTGMIKTDQGLFGSQKSSMPSVGDDVVVLGEVKKEAAAPLPVNMNLTLDLNDGIRFAGYGADVTIGGKLTLTAQSGGSVRGVGTVRVIKGRYKAYGQDLDITKGTVSFVGPLNDPNLNIRAERRLSPVGAGVEILGSLNSPRITLTANEPMSEKDKLSWLILNRAGSGSSGDNAALSAAAGALLAGQINDRIGLVDDLGFTSKRSRNAQTGELNPAEQVLTVGKQLTGKLYIGYEYSISSAEQSVKLIYRLTRAIQAVARIGSRSSGGELTYTIRFDRFSGSDEGHHHHHH | not soluble
MSLSRVEETGLGFVGTFESGFTQGTVGVGVDAIGMLGLKLDSGKGRAGTGLFPTGSDGRSQDDYSKGGGAVKFRISDTVLKVGDQFTALPVFATDDSRLLPEIAQGTLITSNEIEGLTLHAGHFTSLTAQEQTNRDSFGLKEANVVGGTYAFTDNLSTSLYYSKVEDYWRKYYANVNWALPISDNQGLVFDFNIYDTKSEGSAEYRAFDGDKLDNRAFSLSGAYNIGAHTFTLAYQKVTGDGDYGYGIDGGGTIFLANSVARSDFNAEDEKSWQARYDLNFAEYGIPGLTFMTRYVRGSDANVAGTSNGKEWERDVDIKYVLQEGPAKDLSFRVRQATYRSSDGVYYDSPSIDELRLIVEYPLNILEGHHHHHH | soluble
MSLSRVFVIGAAGKVGQRLIKKLGDGGHEVIALHRKEEQSVLIKAAGALPLLANLVEMDAAALSSAMAGSDVVVFTAGAGGAGIELTNAIDGEGLKTSVAAAELAGVRRFLLVSAFPEAARGTDTSAGFENYMRVKKHADVCLASSELDWVILRPGTLVDSAGSGQVRAGLAIPYGDIPRDDVAAFLAALVDQPEISRQIIELTEGTTPVELAIKALGTREGHHHHHH | soluble
